Measurements published in the supplement of paper PMC9170038.

Test system: MS2 coat protein
Assay: apparent KD of MS2 coat protein; designed switch direction (-1 OFF switch, 1 ON switch): -1; higher = weaker reporter binding
Summary of the method: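 Stalled E. coli RNA polymerase transcribed designed RNA switches on Illumina chips, which were then titrated with SNAP-549-labelled MS2 coat protein, doubling from 0.7 or 1.5 nM to 3 µM. Steps lasted from 0.8–1.5 h at the lowest concentration to 10–20 min at the highest. The apparent KD is each design's median over clusters of curve-fitted normalised fluorescence.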

[1] = input ligand: microRNA oligo, concentration not stated
[2] = Eterna round: R95, input ligand: FMN 200 uM
[3] = Eterna round: R95, input ligand: microRNA oligo, concentration not stated
[4] = Eterna round: R95, input ligand: none

Sequence	apparent KD of MS2 coat protein (input ligand: FMN 200 uM) [µM]	apparent KD of MS2 coat protein (input ligand: none) [µM]	apparent KD of MS2 coat protein [1] [µM]	apparent KD of MS2 coat protein [2] [µM]	apparent KD of MS2 coat protein [3] [µM]	apparent KD of MS2 coat protein [4] [µM]
UUGUUACAUGAGGAUCACCCAUGUGAGGAUAUGGUUCAGUAAUGUAAUGUAAAGUACUCCAGAAGGCACAUGUU [1st #27] (Eterna round: R97, puzzle: Exclusion 1)	1.51	0.809				
UUGUUAUAUGUAGGAUAUGCAUAUUAUUAUUAUGCAGAAGGACAUGAGGAUCACCCAUGUAUAUUAUUAUUAUAUAUUAUAUAU [Title] (Eterna round: R96, puzzle: Exclusion NG 1)			0.0224			
UUGUUAUAUGUAGGAUAUGCGUAUUAUUAUUAUGCAGAAGGACAUGAGGAUCACCCAUGUGUAUUAUUAUUAUAUAUUAUAUAU [Title] (Eterna round: R96, puzzle: Exclusion NG 1)	0.0413	0.0211	0.0155			
UUGUUAUGUGUAGGAUAUGCAUAUUAUUAUUAUGCAGAAGGACAUGAGGAUCACCCAUGUGUAUUGUUAUUAUAUAUUAUAUAU [Title] (Eterna round: R96, puzzle: Exclusion NG 1)			0.0171			
UUGUUAUGUGUAGGAUAUGCGUAUUAUUAUUAUGCAGAAGGACAUGAGGAUCACCCAUGUGUAUUAUUAUUAUAUAUUAUAUAU [Title] (Eterna round: R96, puzzle: Exclusion NG 1)	0.0412	0.022	0.0204			
UUGUUAUGUGUAGGAUAUGCGUAUUAUUAUUAUGCAGAAGGACAUGAGGAUCACCCAUGUGUAUUGUUAUUAUAUAUUAUAUAU [Title] (Eterna round: R96, puzzle: Exclusion NG 1)	0.0321	0.0219	0.016			
UUGUUGUAUGUAGGAUAUGCAUAUUAUUAUUAUGCAGAAGGACAUGAGGAUCACCCAUGUAUGUUAUUAUUAUAUGUUAUGUGU [Title] (Eterna round: R96, puzzle: Exclusion NG 1)			0.032			
UUGUUGUAUGUAGGAUAUGCAUAUUAUUAUUAUGCAGAAGGACAUGAGGAUCACCCAUGUAUGUUAUUAUUAUGUGUUAUGUGU [Title] (Eterna round: R96, puzzle: Exclusion NG 1)			0.0339			
UUUAAAAUUUCAAUCUUCGCUGGCAAACUUGCGCCAGCUACAUGAGGAUCACCCAUGUUUUUUGCCCGUCUUAUUCU [Inisti] (puzzle: Sensor v3, turn-off variant 2)				0.0243	0.17	0.0267
UUUAACAAGCCAGAUCCUCACAUGAGGAUCACCCAUGUGCUCGUCUGAUUUUGUACUAUCACGUUUGUGAUAGUGUU [Level Boss var2-07] (puzzle: Sensor v3, turn-off variant 1)				0.24	0.0191	0.124
UUUAACAAGCCAGAUCCUCACAUGAGGAUCACCCAUGUGCUCGUCUGAUUUUGUACUAUCAUGUGAGUGAUAGUGUU [Level Boss var2-06] (Eterna round: R96, puzzle: Sensor v3, turn-off variant 1)	0.2	0.205	0.0569			
UUUAACAAGCCAGAUCCUCACAUGAGGAUCACCCAUGUGCUCGUCUGAUUUUGUACUAUCAUGUGAGUGAUAGUGUU [Level Boss var2-06] (puzzle: Sensor v3, turn-off variant 1)				0.0673	0.0247	0.115
UUUAACAGAGGAUAUGCGAAUAAAUAAAACUUUUUUUUUUAACAUGAGGAUCACCCAUGUAGAAGGCUGAUAUU [Ex2 #23] (Eterna round: R97, puzzle: Exclusion 2)	0.0349	0.0299				
UUUAACGAUGAGGAUAUAUGAUAUCAAAGCAUCAUAGAAGGCAUCACAUGAGGAUCACCCAUGUGAUCUUCUUU [Mat - Exclusion 6 - JL Mod - D29] (Eterna round: R97, puzzle: Exclusion 6)	0.0696	0.0166				
UUUAAGGGAAUUAAGAUCACAUGAGGAUCACCCAUGUAUAUAUAGGAUAUCAGCUCGUGUAGAGCUGAGAAGGAUAUAUACAUA [ExNG3/6-A3] (Eterna round: R96, puzzle: Exclusion NG 3)	0.101	0.132	0.0328			
UUUAAUUGUGACAUGGGUGACAUGAGGAUCACCCAUGUCACAAGCUUUUUGCUCGUCUUAUAAUUAACCCAUGUCAC [Stov1/13-A1] (Eterna round: R97, puzzle: Sensor, turn-off variant 1)	0.0256	0.0277				
UUUAAUUUUUUUUUUUUACAAGCUUUUUGCUCGUCUUAUACAUGAGGAUCACCCAUGUGGGUAGAAGAUAAAUUAUC [JMF 6] (puzzle: Sensor v3, turn-off variant 2)				0.0464	0.0818	0.0374
UUUAAUUUUUUUUUUUUACAAGCUUUUUGCUCGUCUUAUACAUGAGGAUCACCCAUGUGGGUGAAGGAUAAAUUAUC [JMF 26] (puzzle: Sensor v3, turn-off variant 2)				0.0357	0.0362	0.0343
UUUAAUUUUUUUUUUUUACAAGCUUUUUGCUCGUCUUAUACAUGAGGAUCACCCAUGUGGGUGAGAAGUAAAUUAUC [JMF 48] (puzzle: Sensor v3, turn-off variant 2)				0.0637	0.0146	0.224
UUUAAUUUUUUUUUUUUACAAGCUUUUUGCUCGUCUUAUACAUGAGGAUCACCCAUGUGGGUGGGAGAUAAAUUAUC [JMF 24] (puzzle: Sensor v3, turn-off variant 2)				0.0886	0.0593	0.341
UUUAGUAUCUAGGAUAUCUAGUACAUAGUAUCUAGAGAAGGAGAUACAUGAGGAUCACCCAUGUUCUGUGAUCU [Exclusion 6 - 2:b] (puzzle: Exclusion 6)					0.118	
UUUAGUUCAGGAUAUGUAGAAAUUAACAUGAGGAUCACCCAUGUAGAUCCUGAAUUAACUACAGAAGGGAACAUUU [JL-ex5-4.43 Brourd mod] (Eterna round: R97, puzzle: Exclusion 5)	0.0513	0.0157				
UUUAGUUCAGGAUAUGUAGAUUUUAACAUGAGGAUCACCCAUGUAGAUCCUGAAUUAACUACAGAAGGGAACAUUA [Exclusion 5: 2:d] (Eterna round: R96, puzzle: Exclusion 5)	0.0811	0.0247	0.0203			
UUUAGUUCAGGAUAUGUAGAUUUUAACAUGAGGAUCACCCAUGUAGAUCCUGAAUUAACUACAGAAGGGAACAUUA [Exclusion 5: 2:d] (puzzle: Exclusion 5)					0.0194	
UUUAGUUCAGGAUAUGUAGAUUUUAACAUGAGGAUCACCCAUGUAGAUCCUGAUCCUGCUACAGAAGGGAAGAUUU [Mat - Exclusion 5 - Eli Mod - D7] (Eterna round: R97, puzzle: Exclusion 5)	0.0223	0.0239				
UUUAUAAUUUCAAUCUUCGCCAGCAAACUAACACUGGCCACAUGAGGAUCACCCAUGUUUUUUGUUCGUUUUAUUCU [Cesoorso] (puzzle: Sensor v3, turn-off variant 2)				0.0216	0.0629	0.0233
